Source: US20080242590A1, “New Method 706” (ASTRAZENECA AB, priority 2007, published 2008)

Key:
soluble Aβ42 = test: Soluble Aβ42 in plasma after acute i.v. treatment (Example 23); format: in vivo, APPSWE-transgenic mice
Description: The objective with this study was to evaluate the time and dose-response effect of Fc-Nep in plasma of female APPSWE-tg mice after acute intraveneous treatment. The specific purpose is to find an effect on plasma Aβ40 and Aβ42. The γ-secretase inhibitor M-550426 is included as a reference compound.
25-31 weeks old female APPSWE-transgenic mice (10 mice/group) received vehicle or the Fc-Nep at 1 or 5 mg/kg as a single intravenous injections. As a reference compound, 300 μmol/kg of the γ-secretase inhibitor M-550426 was used and these animals was treated in 3 hours (4 mice). […] Blood was sampled from vehicle- and compound-treated animals at 1.5 and 3 hours after dose. Blood was withdrawn from anaesthetized mice by heart puncture into pre-chilled microtainer tubes containing EDTA. Blood samples were immediately put on ice prior to centrifugation. Plasma was prepared by centrifugation for 10 minutes at approximately 3000×g at +4° C. within 20 minutes from sampling. After blood sampling, mice were terminated. Aβ40 and Aβ42 levels in plasma were analyzed by commercial ELISA kit obtained from Biosource and Innogenetics, respectively.

[1] = Plasma exposure (Example 24); format: in vivo, C57BL/6 mice
Description: 13 weeks old female C57BL/6 mice (10 mice/group) received vehicle or hFc-Nep at 1 or 5 mg/kg as a single intravenous injection. M-550426 was administrated per orally at 300 μmol/kg 3 hours before termination. A blank group was also included in the study.
Blood was sampled from vehicle- and compound-treated animals at 1.5 and 3 hours after dose. Blood was withdrawn from anaesthetized mice by heart puncture into pre-chilled microtainer tubes containing EDTA. Blood samples were immediately put on ice prior to centrifugation. Plasma was prepared by centrifugation for 10 minutes at approximately 3000×g at +4° C. within 20 minutes from sampling. After blood sampling, mice were terminated. […] Mouse Aβ40 levels in plasma were analysed by commercial ELISA kit obtained from Biosource. The concentrations of Fc-Nep in plasma and in the formulations were assayed according to the procedures described in Example 27.

Aβ 1-42 = test: Degradation of Aβ 1-42 in human plasma pool (Example 28); format: biochemical; settings: room temperature, 1 hour
Description: Blood from twelve individuals (6 females and 6 males) were collected into pre-chilled heparin-plasma tubes at the healthcare centre (AstraZeneca) at three different time points. Plasma was prepared by centrifugation at 2500×g for 20 min at 4° C. Plasma samples were collected and transferred to pre-chilled polypropylene tubes and immediately frozen and stored at −70° C. prior to use. Plasma was thawed and pooled from 12 individuals just before the experiment. Aβ 1-40 and 1-42 in plasma pool was degraded by human Fc-Nep or mouse Fc-Nep with corresponding vehicles (50 mM Tris-HCl, 150 mM NaCl pH 7.5). The following final concentrations of the Fc-Nep constructs were used, 100, 32, 10, 3.2, 1, 0.3, 0.1 and […] and the degradation occurred at room temperature for 1 hour while shaking on an orbital shaker. The enzymatic reaction was stopped by adding Phosphoramidone (10 μM final concentration). Concentration of amyloid β 1-40 in human plasma pool was measured using ELISA kit (Biosource; KHB3481) according to the manufacturers instructions.
A final concentration of 4.7 mM EDTA was added to the tubes before the concentration of Aβ42 was analyzed using ELISA kit Innotest® β-Amyloid1-42 (Innogenetics, lot#177462, ref#80177) according to the manufacturers instructions.

[2] = Observations of animal health (Example 24); format: in vivo, C57BL/6 mice; settings: 1 or 5 mg/kg single i.v., whole experiment

B1: Fc-Neprilysin: extracellular domain of human Neprilysin fused to the human IgG2 Fc domain (including hinge), Fc at N-terminus; SEQ ID NO 11 (protein)
chain: ERKCCVECPPCPAPPVAGPSVFLFPPKPKDTLMISRTPEVTCVVVDVSHEDPEVQFNWYVDGVEVHNAKTKPREEQFNSTFRVVSVLTVVHQDWLNGKEYKCKVSNKGLPAPIEKTISKTKGQPREPQVYTLPPSREEMTKNQVSLTCLVKGFYPSDIAVEWESNGQPENNYKTTPPMLDSDGSFFLYSKLTVDKSRWQQGNVFSCSVMHEALHNHYTQKSLSLSPGKYDDGICKSSDCIKSAARLIQNMDATTEPCTDFFKYACGGWLKRNVIPETSSRYGNFDILRDELEVVLKDVLQEPKTEDIVAVQKAKALYRSCINESAIDSRGGEPLLKLLPDIYGWPVATENWEQKYGASWTAEKAIAQLNSKYGKKVLINLFVGTDDKNSVNHVIHIDQPRLGLPSRDYYECTGIYKEACTAYVDFMISVARLIRQEERLPIDENQLALEMNKVMELEKEIANATAKPEDRNDPMLLYNKMTLAQIQNNFSLEINGKPFSWLNFTNEIMSTVNISITNEEDVVVYAPEYLTKLKPILTKYSARDLQNLMSWRFIMDLVSSLSRTYKESRNAFRKALYGTTSETATWRRCANYVNGNMENAVGRLYVEAAFAGESKHVVEDLIAQIREVFIQTLDDLTWMDAETKKRAEEKALAIKERIGYPDDIVSNDNKLNNEYLELNYKEDEYFENIIQNLKFSQSKQLKKLREKVDKDEWISGAAVVNAFYSSGRNQIVFPAGILQPPFFSAQQSNSLNYGGIGMVIGHEITHGFDDNGRNFNKDGDLVDWWTQQSASNFKEQSQCMVYQYGNFSWDLAGGQHLNGINTLGENIADNGGLGQAYRAYQNYIKKNGEEKLLPGLDLNHKQLFFLNFAQVWCGTYRPEYAVNSIKTDVHSPGNFRIIGTLQNSAEFSEAFHCRKNSYMNPEKKCRVW
Which results are given for B1?
Change in plasma Aβ42 (soluble Aβ42; 1 mg/kg i.v., 1.5 hours): No significant change; Reduction of Aβ42 in plasma compared to vehicle (soluble Aβ42; 5 mg/kg i.v., 1.5 hours, P<0.05): approximately 20%; Change in plasma Aβ42 (soluble Aβ42; any of the doses (1 and 5 mg/kg), 3 hours): No significant changes; Mean plasma exposure ([1]; 1 mg/kg i.v., 1.5 hours): 14 µg/mL; Mean plasma exposure ([1]; 1 mg/kg i.v., 3 hours): 17 µg/mL; Mean plasma exposure ([1]; 5 mg/kg i.v., 1.5 hours): 89 µg/mL; Mean plasma exposure ([1]; 5 mg/kg i.v., 3 hours): 78 µg/mL; Degradation of Aβ 1-42 compared to plasma without treatment (Aβ 1-42; highest concentration 100 μg/ml): 28%; EC50 (Aβ 1-42): 0.25 µM; Observations of the animal health [2]: no overt adverse effects
